Values of other authors as cited in article PMC3514595.

Target: IL-15Rα (UniProt Q13261)
Chain of UniProt Q13261 (Q13261 31-205): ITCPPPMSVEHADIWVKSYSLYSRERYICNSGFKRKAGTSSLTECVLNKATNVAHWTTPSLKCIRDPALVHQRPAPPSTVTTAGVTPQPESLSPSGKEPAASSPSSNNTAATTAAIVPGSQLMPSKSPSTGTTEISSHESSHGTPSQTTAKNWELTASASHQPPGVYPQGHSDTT

Kd: 0.038 nM
Substance: IL-15 (from UniProt P40933)
